Test results: the nanobody polyreactivity screen of Harvey et al. (2022)

Assay: yeast display, Sf9 membrane polyspecificity reagent, FACS + sequencing; frameworks hold sequencing errors
In short: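 A nanobody's polyreactivity label depends on the gate it was sorted from. Yeast display cells were stained with 10% biotinylated, detergent-solubilized Sf9 membrane reagent for 1 hour at 4 °C, enriched on streptavidin microbeads and sorted by FACS. The low and high (top ~1%) gates were set on anti-HA fluorescence for expression and streptavidin fluorescence for reagent binding.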

Sequence | polyreactivity (PSR sort gate)
QVQLVESGGDLVQAGGSLRLSCAASGRSYKYNDMGWYRQAPRKERELVADISSGVSTYYADSVKGRFTISRDNAKNTVYLQMNSLKPEDTAVYYFNAYSDGDEDYWGQGTQVTVSS | low polyreactivity
QVQLVESGGFLVQAAGSLRLSCDASGFTFSSYSMGWYRQAPGKERELVAAISTRGGSTYYADSVKGRFTISLDNAMNSVYLLLNSLKPEDTADYYCATGGRGGRRYDYWGQGTQVTVSS | low polyreactivity
QVQLVESGGGFVHAGGSLRLSCAASGITSRFYAIGWYRQAPAKERELVAAITSGGGSTRYSDSVKGRFTISRDNAKNTVYLQMNSLKPEDTAVYYCNARVLYYVNGYGGCKRYGYWGQGTQVNVSS | high polyreactivity
QVQLVESGGGFVKAGGSLRLSCASSGSIFYSYAMGWYRQAPGKEREFVAAISWSASRTYYADSVKGRFTISRDNAKNTVYLQMNSLKPEDTAVYDCAARTYYNSGYYYWGQGTQVTVSS | high polyreactivity
QVQLVESGGGFVQAGCSLRLSCDASGSIFAPNVMGCYRQAPGKERELDAAINFIGGRTYYADSVKGRFTISRDNAKNTVYLQMNSLKTEDTSVYYCNVGSYYRSYSGDFEYWGQGTQVTVSS | high polyreactivity
QVQLVESGGGFVQAGGRLRLSCAASGRTFKYYAMGWYRPAPGKDRELVAAISRGGSTNYADSVKGRFTISRDNAKNTVYLQLTSLNPEDTAVYYCAADQVTDYWWRGYEYWGQGTQVTVSS | low polyreactivity
QVQLVESGGGFVQAGGSLRLSCAASGCTFIKYAMGWYTQAPGKEREFVAAITRSGTSTYYADSVKGRFTISRDNAKNTVYLQMNRLKPEDTAVYFCSARYVYNSDRVSERDYWGQGTQVTVSS | high polyreactivity
QVQLVESGGGFVQAGGSLRLSCAASGCTVRWNAKGWYRQATGKDRELVAAITYSGGSTYYADSVKGRLTISRDIANNTVYLQMNSLNPEDTAVYYCATEGRGYFCYYTDDYWGQGTQVTVSS | high polyreactivity
QVQLVESGGGFVQAGGSLRLSCAASGFIFGYYAMGWYRQAPGKERELVAAITRSGSRTYYADSVKGRFTISRDNAKNTVYLQMNSLKPEDTAVYYFAKRRYWYYRSRDWFVSGVYWGQGTQVTVSS | low polyreactivity
QVQLVESGGGFVQAGGSLRLSCAASGFSFGYSAMGWYRQAPGKERELVAAINNADSTYYADSVKGRFPISRDNAKNTVYLQMNSLKPEDTAVYYCAAVVDYGWWLAYDYWGQGTQVTVSS | high polyreactivity
QVQLVESGGGFVQAGGSLRLSCAASGINVSHYTMGWYRQAPGKERELVAGISRSGGSTYYADSVKGRFTISRDNAKNTVYLQMNSLKPDDTAVYYCAADGYGFVSPRGYNYWGQGTQVTVSS | high polyreactivity
QVQLVESGGGFVQAGGSLRLSCAASGRIFGQYAMGWYRQAPGKERELVAAISQRGGSTYYADSVKGRFTISRDNAKNTVYLQMNSLKPEDTAVYYCAAPPRLIKSYGYNYWGQGTQVTVSS | high polyreactivity
QVQLVESGGGFVQAGGSLRLSCAASGRIFGVYALGWYRPAPGKERELVAAISYSGGSTYYADSVKGRFTISRVNAKNTVYLQMNSLKPEDTAVYYCAAKIFPKGDYWGQGTQVTVSS | high polyreactivity
QVQLVESGGGFVQAGGSLRLSCAASGRTFNGYAMGWYTQAPGKERELVAGISWRGTSTYYSDSVKGRFTISRDNAKNTVYLQLNSLKPEDTAVYYCAASRYLLYDYWGQGTQVTVSS | high polyreactivity
QVQLVESGGGFVQAGGSLRLSCAASGSIFRGYAMGWYRQAPGKERELVAAIRYSGARTYYADSVKGRFTISRDNAKNTVYLQMNSLKPEDTAVYYCNARYIRSYDYWGQGTQVTVSS | high polyreactivity
QVQLVESGGGFVQAGGSLRLSCAASGSTFFTNAKGWYRQAPGKERELVAASRWRGGTYYADSVKGRFTISRDNAKKTVYLQMNSLKPEDTPVYDCATSVKTSFDYWRQGTQVTVSS | low polyreactivity
QVQLVESGGGFVQAGGSLSLSCAASGRIFGINAMLWYRQAPGKVRELVAAISSSGANTYYADSVKGRFTISRDNAKNTVYLQMNRLKPEDTAVYYCATKASSYQSPYYYWGQGTQVTVSS | high polyreactivity
QVQLVESGGGFVQAGVSLRLSCAASGSIYYNAMGWYIQAPGKERELVAGITSSGGSTYYADSVKGRFTISRDNAKNTVYLQMISLKPEDTAVYFCAADFVYLCTLFGAYDYCGQGTQVTVSS | low polyreactivity
QVQLVESGGGIDQAGGSLRLICAASGRTFTQYAMRWSRQAHGKERELVAAITRSGGSTYYADSVKGRFTISRDNAKNTVYVLMNILKPEDTAVYYCAKRPAYRSTQTFDFWGQGTQVTVSS | high polyreactivity
QVQLVESGGGIFHAGGSLRLRCAASGSIYRGYAMVWYRQAPGKERELVASIRWRGGRTNYADSVKGRFTISRDNAKNTVYLQMNSLKPEDTAVYYCNADQQTIRSGKNDYWGQGTQVTVSS | low polyreactivity
QVQLVESGGGIFQAGGSLRLSCDASGFTIGAYAMGWYRQAPGKERELVAAITLRTGGSTYYADSLKGRFTISRDNAKNTVYLQMNSLKPEDTAVYYCATYGSYWRKSRAPGYYYGGQGTQVTVSS | high polyreactivity

Sequence | polyreactivity (PSR sort gate)
QVQLVESGGGIVHAGCSLRLSSTASRFIFWWYAMAGYRQAHGKERELVATITASVGSTNYADSVKGRFTISRDNAKNTVYLQMNSLNPEDTAVYYCATDIIGAIRDWDHTRMDYWGQGTQVTVSS | low polyreactivity
QVQLVESGGGIVHAGGSLRLSCAASGFIFDTNAMGWYRQAPGKEREMVAAITNDDSTNYADSVKGRFTISRDNAKTTVYLQMNSLKPEDTSVYYCAAYYIAQVVWPTTFHQQEYDYWGQGSQVTVSS | low polyreactivity
QVQLVESGGGIVKAAGSLRLSCAASGSTFKKYAMGWDRQAPRKERELVASISSGGGTYYADSVKGRFTISRDNAKNTVYVQMNSLKPEDTAVYYCAARYHYAKSPYRYYYWGQGTQVTVSS | high polyreactivity
QVQLVESGGGIVKAGGSLGISCAASGRIFDYYDMLWYRQAPGKERELVAAITQSGGSTNYADSVKGRFTISRDNAKNTVYLQMNSLKPEDTAVYYCAGVGYYTKRRFGYWGQGTQVTVSS | high polyreactivity
QVQLVESGGGIVQAAGSLRLSCAASGFTIYYYAMVWYRQAPGKERELVASITSGGSTYYADSVKGRFTISRDNAKNTVYLQMNSLKPEDTAVYYCAITRFHSKEGVYWGQGTQVTVSS | low polyreactivity
QVQLVESGGGIVQAGGRLRISCAASGFSFRKYAMGWSRQAPGKEREFVASISSTGARTYYADSVKGRFTISRDNAKNTVYLQMTSLKPEDTAVYYCAAAYGRYYYTYDYWGLGTQVTVSS | high polyreactivity
QVQLVESGGGIVQAGGRLRLRCAASGSNFYYNAMGWYRQAPGKERELVAAITWSGGRTYYADSVKGRFTISRDNAKNTVYLQMNSLKPEDTAVYYCNARYRASRYNYWGQGTQVTVSS | high polyreactivity
QVQLVESGGGIVQAGGRLRLSCAASGSILAGYALGWYRQSPGKERELVAAISESGGNTYYADSVKGRFTISRDNAKNTVYLQMNSLKPEDTAVYYCAADLGYGPLRELEYWGQGTQVTVSS | low polyreactivity
QVQLVESGGGIVQAGGRLRLSCAASGSTFFKYARGWYRQAPGKERELVATMSGTGGRTYYADSVKGRFTISRDNAKNTVYLQMNSLKPEDTAVYYCAAGIYRPFFYTLDYWGQGTQVTVSS | low polyreactivity
QVQLVESGGGIVQAGGSFRLSCAASGSIFVVYAMGWYRQAPGKERELVAAITSGGSTYYADSVKGRFTISRDNAKNTVYLQMNSLKPEDTAVYYCATTYRDGVYELTTFDYWGQGTQVTVSS | low polyreactivity
QVQLVESGGGIVQAGGSHRVICAASGRIFRRYTMGWYRQATGKERDLVATITWDGVSTYYADSVKGRFTISRDNAKKTDYLQMNSLKPEDTAGYYCAARRVYLVGGRYDSWGQGTQVTVSS | high polyreactivity
QVQLVESGGGIVQAGGSLRISCAASRRTYFFNDMGWYRQAPGKERELVAAIGWSTVTTYYADSVKGRFTISRDNAKYTVYFQMISLKPEDTAVYYCAADADGWYSPYDYWGQGSQVTVSS | high polyreactivity
QVQLVESGGGIVQAGGSLRLICAASGFTFGEYAMGRYRQAPGKERELVAAISRGTSTYYADSVKGRFTISRDNAKTTVYLQMNSLKPEDTAVYYCAADWGGLWFWYEYWGQGTQVTVSS | low polyreactivity
QVQLVESGGGIVQAGGSLRLICAASGLIFTLYAMGWSRQAPGKERQLVAVISSAGSTNYADSVKGRFTISRDTAKNTVYLQMNSLKPEETAVYYCNAEPTTPYWDYWAYEDDYWGQGTQVTVSS | low polyreactivity
QVQLVESGGGIVQAGGSLRLICAASGRIFPYNVMGWYRQAPGKERELVAAISSGGTTDYADSVKGRFTISRDNAKNTVYLQMNSLKPEDTAVYYCAATYVYWTWGYDYWGQGTQVTVSS | low polyreactivity
QVQLVESGGGIVQAGGSLRLICAASGSIFSSNAMGWYRQAPGKERELVAAISYSGGGTYYADSVKGRFTISRDNEKNTVYLQMNSLKAEDTAVYYCAVGILFGHYDYLGQGTQVTVSS | high polyreactivity
QVQLVESGGGIVQAGGSLRLRCAASGSTFKVYAIGWYRQATGKERELVAAISRGGRTYYADSVKGRFTISRDNAKNTVYLQMNSLKPEDTAVYYCAAGDQYKTRRNGYGYWGQGTQVTLSS | high polyreactivity
QVQLVESGGGIVQAGGSLRLSCAAAGFTFWQYAMGWYRQAPGKERELVAAITWDGGSTYYADSVKGRFTISRDYAKNTVYLQMNSLKPEDTAVYYCAKLFGGTYYEYDYWGQGTQVTVSS | low polyreactivity
QVQLVESGGGIVQAGGSLRLSCAASGFIFAGNAMGWSSQAPGKERELVAAITRRGGSTHYADSVKGRFTISRDKAKYTVYLQMNSLKPEDTAVYYCNAAVQPPWSDYWGQGTQVTVSS | low polyreactivity
QVQLVESGGGIVQAGGSLRLSCAASGFIFRYYAMGWYRHAPGKESELVATITRSGGSTYYADSVKGRFTISRDNAKNTVYLQMNSLKPEDTAVYYCAADIYWYRGYGYWGQGTQVTVSS | high polyreactivity
